Experiments:
[1] = molecular target: nbn_human NBN (UniProt O60934)
[2] = molecular target: nbs1_schpo nbs1 (UniProt O43070)
nbs1_schpo nbs1, sequence (O43070 whole entry): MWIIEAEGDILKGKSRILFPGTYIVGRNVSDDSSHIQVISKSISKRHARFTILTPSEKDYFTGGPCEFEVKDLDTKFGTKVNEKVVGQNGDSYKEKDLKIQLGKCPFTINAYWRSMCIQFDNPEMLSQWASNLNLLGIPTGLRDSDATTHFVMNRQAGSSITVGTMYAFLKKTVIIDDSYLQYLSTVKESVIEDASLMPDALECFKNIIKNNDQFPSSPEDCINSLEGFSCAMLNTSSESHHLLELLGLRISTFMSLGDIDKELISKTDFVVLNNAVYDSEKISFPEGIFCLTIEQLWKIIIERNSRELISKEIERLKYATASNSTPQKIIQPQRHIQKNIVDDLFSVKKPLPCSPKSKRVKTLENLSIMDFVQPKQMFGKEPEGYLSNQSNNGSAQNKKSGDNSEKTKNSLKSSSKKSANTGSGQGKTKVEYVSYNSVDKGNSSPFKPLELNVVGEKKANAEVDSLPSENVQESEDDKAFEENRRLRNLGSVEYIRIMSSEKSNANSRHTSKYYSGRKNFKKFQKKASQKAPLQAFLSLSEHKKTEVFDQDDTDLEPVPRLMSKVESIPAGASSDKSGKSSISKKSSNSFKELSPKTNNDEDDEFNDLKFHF

nbn_human NBN, sequence (O60934 whole entry): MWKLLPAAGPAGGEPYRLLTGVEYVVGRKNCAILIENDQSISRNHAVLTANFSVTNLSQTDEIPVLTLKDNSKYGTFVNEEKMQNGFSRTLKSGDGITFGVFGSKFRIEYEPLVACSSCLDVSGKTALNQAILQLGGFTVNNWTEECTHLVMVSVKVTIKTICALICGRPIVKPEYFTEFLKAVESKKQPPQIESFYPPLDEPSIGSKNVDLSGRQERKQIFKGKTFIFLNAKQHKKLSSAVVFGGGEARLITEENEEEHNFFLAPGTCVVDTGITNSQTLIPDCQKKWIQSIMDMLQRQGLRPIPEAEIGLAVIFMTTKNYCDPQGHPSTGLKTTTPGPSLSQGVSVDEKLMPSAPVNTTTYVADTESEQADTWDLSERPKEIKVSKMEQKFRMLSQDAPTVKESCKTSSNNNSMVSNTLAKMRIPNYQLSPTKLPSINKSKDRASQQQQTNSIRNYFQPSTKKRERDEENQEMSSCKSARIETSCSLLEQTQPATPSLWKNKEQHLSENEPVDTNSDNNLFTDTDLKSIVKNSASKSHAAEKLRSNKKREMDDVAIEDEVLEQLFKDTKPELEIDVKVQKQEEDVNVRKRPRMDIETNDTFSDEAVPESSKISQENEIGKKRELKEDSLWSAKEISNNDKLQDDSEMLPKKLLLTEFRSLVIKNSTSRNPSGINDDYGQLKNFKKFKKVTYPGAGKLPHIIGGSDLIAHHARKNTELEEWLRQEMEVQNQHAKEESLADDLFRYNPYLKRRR

Substance: Mediator of DNA damage checkpoint protein 1 (Homo sapiens), Q14676 T331S
- effect of a mutation on the interaction [1]: decreasing interaction

Substance: Mediator of DNA damage checkpoint protein 1 (Homo sapiens), Q14676 E334A
- effect of a mutation on the interaction [2]: decreasing interaction

Source: IntAct's records for PubMed 19804756
